Assay results reported in the supplement of paper PMC5998384.

Columns and labels:
HeLa Kyoto [1] = experiment: thermal stability score vs G1/S (z-score of summed log2 fold changes over temperatures); higher = more thermally stable than in G1/S
HeLa Kyoto [2] = experiment: melting temperature (median over replicates), in situ; higher = more thermally stable
HeLa Kyoto [3] = experiment: solubility in G1/S (NP-40 vs SDS abundance) (log2 ratio); higher = more soluble; conditions: cell cycle stage: G1/S
HeLa Kyoto [4] = experiment: solubility change mitosis vs G1/S (difference of NP-40 vs SDS log2 ratios) (log2 ratio difference); higher = more soluble in mitosis
[5] = cell cycle stage: early G1 (4.5 h after nocodazole release)
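For melting temperature (median over replicates), in situ in this document: HeLa Kyoto cells synchronized by double thymidine or nocodazole block, proteins quantified by TMT10plex mass spectrometry, three independent biological replicates.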
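For solubility change mitosis vs G1/S (difference of NP-40 vs SDS log2 ratios) in this document: synchronized HeLa Kyoto cells (double thymidine block for G1/S, nocodazole release for mitosis), protein amounts in NP-40 versus SDS lysates quantified by mass spectrometry, three biological replicates.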
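For solubility in G1/S (NP-40 vs SDS abundance) in this document: HeLa Kyoto cells arrested at G1/S by double thymidine block, proteins quantified by TMT10plex mass spectrometry in mild NP-40 versus SDS extracts, three biological replicates.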
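For thermal stability score vs G1/S (z-score of summed log2 fold changes over temperatures) in this document: synchronized HeLa Kyoto cells, proteins quantified by TMT10plex mass spectrometry, three biological replicates, mitosis taken 0.5 h after nocodazole release, G1/S directly after double thymidine block.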

Sequence | thermal stability score (HeLa Kyoto [1]; [5]) | thermal stability score (HeLa Kyoto [1]; cell cycle stage: mitosis) | melting temperature (HeLa Kyoto [2]; cell cycle stage: G1/S) | melting temperature (HeLa Kyoto [2]; cell cycle stage: mitosis) | solubility in G1/S (log2) (HeLa Kyoto [3]) | solubility change mitosis (log2) (HeLa Kyoto [4])
MADAFGDELFSVFEGDSTTAAGTKKDKEKDKGKWKGPPGSADKAGKRFDGKLQSESTNNGKNKRDVDFEGTDEPIFGKKPRIEESITEDLSLADLMPRVKVQSVETVEGCTHEVALPAEEDYLPLKPRVGKAAKEYPFILDAFQREAIQCVDNNQSVLVSAHTSAGKTVCAEYAIALALREKQRVIFTSPIKALSNQKYREMYEEFQDVGLMTGDVTINPTASCLVMTTEILRSMLYRGSEVMREVAWVIFDEIHYMRDSERGVVWEETIILLPDNVHYVFLSATIPNARQFAEWICHLHKQPCHVIYTDYRPTPLQHYIFPAGGDGLHLVVDENGDFREDNFNTAMQVLRDAGDLAKGDQKGRKGGTKGPSNVFKIVKMIMERNFQPVIIFSFSKKDCEAYALQMTKLDFNTDEEKKMVEEVFSNAIDCLSDEDKKLPQVEHVLPLLKRGIGIHHGGLLPILKETIEILFSEGLIKALFATETFAMGINMPARTVLFTNARKFDGKDFRWISSGEYIQMSGRAGRRGMDDRGIVILMVDEKMSPTIGKQLLKGSADPLNSAFHLTYNMVLNLLRVEEINPEYMLEKSFYQFQHYRAIPGVVEKVKNSEEQYNKIVIPNEESVVIYYKIRQQLAKLGKEIEEYIHKPKYCLPFLQPGRLVKVKNEGDDFGWGVVVNFSKKSNVKPNSGELDPLYVVEVLLRCSKESLKNSATEAAKPAKPDEKGEMQVVPVLVHLLSAISSVRLYIPKDLRPVDNRQSVLKSIQEVQKRFPDGIPLLDPIDDMGIQDQGLKKVIQKVEAFEHRMYSHPLHNDPNLETVYTLCEKKAQIAIDIKSAKRELKKARTVLQMDELKCRKRVLRRLGFATSSDVIEMKGRVACEISSADELLLTEMMFNGLFNDLSAEQATALLSCFVFQENSSEMPKLTEQLAGPLRQMQECAKRIAKVSAEAKLEIDEETYLSSFKPHLMDVVYTWATGATFAHICKMTDVFEGSIIRCMRRLEELLRQMCQAAKAIGNTELENKFAEGITKIKRDIVFAASLYL [SKIV2L2] | 0.414 | -1.19 | 51.3 °C | 51.2 °C | -0.515 | 0.119
MSGNGNAAATAEENSPKMRVIRVGTRKSQLARIQTDSVVATLKASYPGLQFEIIAMSTTGDKILDTALSKIGEKSLFTKELEHALEKNEVDLVVHSLKDLPTVLPPGFTIGAICKRENPHDAVVFHPKFVGKTLETLPEKSVVGTSSLRRAAQLQRKFPHLEFRSIRGNLNTRLRKLDEQQEFSAIILATAGLQRMGWHNRVGQILHPEECMYAVGQGALGVEVRAKDQDILDLVGVLHDPETLLRCIAERAFLRHLEGGCSVPVAVHTAMKDGQLYLTGGVWSLDGSDSIQETMQATIHVPAQHEDGPEDDPQLVGITARNIPRGPQLAAQNLGISLANLLLSKGAKNILDVARQLNDAH [HMBS] | -1.68 | -1.79 | 57.6 °C | 57.3 °C | 0.328 | -0.0671
MVAGSDAGRALGVLSVVCLLHCFGFISCFSQQIYGVVYGNVTFHVPSNVPLKEVLWKKQKDKVAELENSEFRAFSSFKNRVYLDTVSGSLTIYNLTSSDEDEYEMESPNITDTMKFFLYVLESLPSPTLTCALTNGSIEVQCMIPEHYNSHRGLIMYSWDCPMEQCKRNSTSIYFKMENDLPQKIQCTLSNPLFNTTSSIILTTCIPSSGHSRHRYALIPIPLAVITTCIVLYMNGILKCDRKPDRTNSN [CD58] | -0.387 | -1.23 | 55.3 °C |  | -0.813 | 0.319
MKRRTDPECTAPIKKQKKRVAELALSLSSTSDDEPPSSVSHGAKASTTSLSGSDSETEGKQHSSDSFDDAFKADSLVEGTSSRYSMYNSVSQKLMAKMGFREGEGLGKYSQGRKDIVEASSQKGRRGLGLTLRGFDQELNVDWRDEPEPSACEQVSWFPECTTEIPDTQEMSDWMVVGKRKMIIEDETEFCGEELLHSVLQCKSVFDVLDGEEMRRARTRANPYEMIRGVFFLNRAAMKMANMDFVFDRMFTNPRDSYGKPLVKDREAELLYFADVCAGPGGFSEYVLWRKKWHAKGFGMTLKGPNDFKLEDFYSASSELFEPYYGEGGIDGDGDITRPENISAFRNFVLDNTDRKGVHFLMADGGFSVEGQENLQEILSKQLLLCQFLMALSIVRTGGHFICKTFDLFTPFSVGLVYLLYCCFERVCLFKPITSRPANSERYVVCKGLKVGIDDVRDYLFAVNIKLNQLRNTDSDVNLVVPLEVIKGDHEFTDYMIRSNESHCSLQIKALAKIHAFVQDTTLSEPRQAEIRKECLRLWGIPDQARVAPSSSDPKSKFFELIQGTEIDIFSYKPTLLTSKTLEKIRPVFDYRCMVSGSEQKFLIGLGKSQIYTWDGRQSDRWIKLDLKTELPRDTLLSVEIVHELKGEGKAQRKISAIHILDVLVLNGTDVREQHFNQRIQLAEKFVKAVSKPSRPDMNPIRVKEVYRLEEMEKIFVRLEMKIIKGSSGTPKLSYTGRDDRHFVPMGLYIVRTVNEPWTMGFSKSFKKKFFYNKKTKDSTFDLPADSIAPFHICYYGRLFWEWGDGIRVHDSQKPQDQDKLSKEDVLSFIQMHRA [CMTR1] | 0.699 | 1.05 | 49.7 °C | 51 °C | -0.186 | -0.0832
MATEHPEPPKAELQLPPPPPPGHYGAWAAQELQAKLAEIGAPIQGNREELVERLQSYTRQTGIVLNRPVLRGEDGDKAAPPPMSAQLPGIPMPPPPLGLPPLQPPPPPPPPPPGLGLGFPMAHPPNLGPPPPLRVGEPVALSEEERLKLAQQQAALLMQQEERAKQQGDHSLKEHELLEQQKRAAVLLEQERQQEIAKMGTPVPRPPQDMGQIGVRTPLGPRVAAPVGPVGPTPTVLPMGAPVPRPRGPPPPPGDENREMDDPSVGPKIPQALEKILQLKESRQEEMNSQQEEEEMETDARSSLGQSASETEEDTVSVSKKEKNRKRRNRKKKKKPQRVRGVSSESSGDREKDSTRSRGSDSPAADVEIEYVTEEPEIYEPNFIFFKRIFEAFKLTDDVKKEKEKEPEKLDKLENSAAPKKKGFEEEHKDSDDDSSDDEQEKKPEAPKLSKKKLRRMNRFTVAELKQLVARPDVVEMHDVTAQDPKLLVHLKATRNSVPVPRHWCFKRKYLQGKRGIEKPPFELPDFIKRTGIQEMREALQEKEEQKTMKSKMREKVRPKMGKIDIDYQKLHDAFFKWQTKPKLTIHGDLYYEGKEFETRLKEKKPGDLSDELRISLGMPVGPNAHKVPPPWLIAMQRYGPPPSYPNLKIPGLNSPIPESCSFGYHAGGWGKPPVDETGKPLYGDVFGTNAAEFQTKTEEEEIDRTPWGELEPSDEESSEEEEEEESDEDKPDETGFITPADSGLITPGGFSSVPAGMETPELIELRKKKIEEAMDGSETPQLFTVLPEKRTATVGGAMMGSTHIYDMSTVMSRKGPAPELQGVEVALAPEELELDPMAMTQKYEEHVREQQAQVEKEDFSDMVAEHAAKQKQKKRKAQPQDSRGGSKKYKEFKF [SF3B2] | -1.42 | -2.09 | 50.5 °C | 49.9 °C | -0.165 | 0.237
MVADPPRDSKGLAAAEPTANGGLALASIEDQGAAAGGYCGSRDQVRRCLRANLLVLLTVVAVVAGVALGLGVSGAGGALALGPERLSAFVFPGELLLRLLRMIILPLVVCSLIGGAASLDPGALGRLGAWALLFFLVTTLLASALGVGLALALQPGAASAAINASVGAAGSAENAPSKEVLDSFLDLARNIFPSNLVSAAFRSYSTTYEERNITGTRVKVPVGQEVEGMNILGLVVFAIVFGVALRKLGPEGELLIRFFNSFNEATMVLVSWIMWYAPVGIMFLVAGKIVEMEDVGLLFARLGKYILCCLLGHAIHGLLVLPLIYFLFTRKNPYRFLWGIVTPLATAFGTSSSSATLPLMMKCVEENNGVAKHISRFILPIGATVNMDGAALFQCVAAVFIAQLSQQSLDFVKIITILVTATASSVGAAGIPAGGVLTLAIILEAVNLPVDHISLILAVDWLVDRSCTVLNVEGDALGAGLLQNYVDRTESRSTEPELIQVKSELPLDPLPVPTEEGNPLLKHYRGPAGDATVASEKESVM [SLC1A5] | -1.47 | -1.94 |  | 65.7 °C | 0.196 | -0.123
MAGAAPRVRYLAGFCCPLGGLAAGKPRVLCHEAEVFLSTGSELVYVYDQEGGLLTAAFRFPDQVWHLELLAPRRLLYALCARRGLYCLSLDHPGRSRSTSQDDRDSEDGDQPSPVIPVDPDACILPDAALCAFTLLDSVLVTLVQGPARWKMQLFEQPCPGEDPRPGGQIGEVELSSYTPPAGVPGKPAAPHFLPVLCSVSPSGSRVPHDLLGGSGGFTLEDALFGLLFGADATLLQSPVVLCGLPDGQLCCVILKALVTSRSAPGDPNALVKILHHLEEPVIFIGALKTEPQAAEAAENFLPDEDVHCDCLVAFGHHGRMLAIKASWDESGKLVPELREYCLPGPVLCAACGGGGRVYHSTPSDLCVVDLSRGSTPLGPEQPEEGPGGLPPMLCPASLNICSVVSLSASPRTHEGGTKLLALSAKGRLMTCSLDLDSEMPGPARMTTESAGQKIKELLSGIGNISERVSFLKKAVDQRNKALTSLNEAMNVSCALLSSGTGPRPISCTTSTTWSRLQTQDVLMATCVLENSSSFSLDQGWTLCIQVLTSSCALDLDSACSAITYTIPVDQLGPGARREVTLPLGPGENGGLDLPVTVSCTLFYSLREVVGGALAPSDSEDPFLDECPSDVLPEQEGVCLPLSRHTVDMLQCLRFPGLAPPHTRAPSPLGPTRDPVATFLETCREPGSQPAGPASLRAEYLPPSVASIKVSAELLRAALKDGHSGVPLCCATLQWLLAENAAVDVVRARALSSIQGVAPDGANVHLIVREVAMTDLCPAGPIQAVEIQVESSSLADICRAHHAVVGRMQTMVTEQATQGSSAPDLRVQYLRQIHANHETLLREVQTLRDRLCTEDEASSCATAQRLLQVYRQLRHPSLILL [FAAP100] | -0.383 | 0.0611 | 54 °C | 52.6 °C | 0.0643 | -0.00216
MIDSSKKQQQGFPEILTAGDFEPLKEKECLEGSNQKSLKEVLQLRLQQRRTREQLVDQGIMPPLKSPAAFHEQIKSLERARTENFLKHKIRSRPDRSELVRMHILEETFAEPSLQATQMKLKRARLADDLNEKIAQRPGPMELVEKNILPVDSSVKEAIIGVGKEDYPHTQGDFSFDEDSSDALSPDQPASQESQGSAASPSEPKVSESPSPVTTNTPAQFASVSPTVPEFLKTPPTADQPPPRPAAPVLPTNTVSSAKPGPALVKQSHPKNPNDKHRSKKCKDPKPRVKKLKYHQYIPPDQKGEKNEPQMDSNYARLLQQQQLFLQLQILSQQKQHYNYQTILPAPFKPLNDKNSNSGNSALNNATPNTPRQNTSTPVRKPGPLPSSLDDLKVSELKTELKLRGLPVSGTKPDLIERLKPYQEVNSSGLAAGGIVAVSSSAIVTSNPEVTVALPVTTLHNTVTSSVSTLKAELPPTGTSNATRVENVHSPLPISPSPSEQSSLSTDDTNMADTFTEIMTMMSPSQFLSSSPLRMTNNEDSLSPTSSTLSNLELDAAEKDRKLQEKEKQIEELKRKLEQEQKLVEVLKMQLEVEKRGQQQRPLEAQPSAPGHSVKSDQKHGSLGSSIKDEASLPDCSSSRQPIPVASHAVGQPVSTGGQTLVAKKAVVIKQEVPVGQAEQQSVVSQFYVSSQGQPPPAVVAQPQALLTTQTAQLLLPVSIQGSSVTSVQLPVGSLKLQTSPQAGMQTQPQIATAAQIPTAALASGLAPTVPQTQDTFPQHVLSQPQQVRKVFTNSASSNTVLPYQRHPAPAVQQPFINKASNSVLQSRNAPLPSLQNGPNTPNKPSSPPPPQQFVVQHSLFGSPVAKTKDPPRYEEAIKQTRSTQAPLPEISNAHSQQMDDLFDILIKSGEISLPIKEEPSPISKMRPVTASITTMPVNTVVSRPPPQVQMAPPVSLEPMGSLSASLENQLEAFLDGTLPSANEIPPLQSSSEDREPFSLIEDLQNDLLSHSGMLDHSHSPMETSETQFAAGTPCLSLDLSDSNLDNMEWLDITMPNSSSGLTPLSTTAPSMFSADFLDPQDLPLPWD [MKL2] | 1.45 | 3.81 | 52.5 °C | 53 °C | 0.208 | -0.304
